Series [1] has as its target T1, VvCEB1 (UniProt I6QS36 1-270).
T1 sequence: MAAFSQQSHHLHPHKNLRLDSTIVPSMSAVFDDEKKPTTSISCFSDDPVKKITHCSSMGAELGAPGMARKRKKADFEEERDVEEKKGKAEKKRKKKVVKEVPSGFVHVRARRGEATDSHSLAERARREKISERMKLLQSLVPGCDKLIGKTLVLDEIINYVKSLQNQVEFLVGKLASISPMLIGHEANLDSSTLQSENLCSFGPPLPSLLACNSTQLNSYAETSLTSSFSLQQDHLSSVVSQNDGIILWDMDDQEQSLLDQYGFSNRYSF
Put plainly: EMSA; Binding buffer, salt, pH and temperature not stated; Beyotime chemiluminescent biotin-labelled nucleic acid detection kit; probes annealed at 72 C for 30 min. The note with it: protein: recombinant; tags: His (pET-30a(+)); chain copies: 2; label: 5'-biotin; blunt. A general note: In EMSA bound probe runs differently from free probe, usually more slowly.

Series [2] addresses T1, VvCEB1. Put plainly: competition; unlabelled competitor against biotin probe N1; band significantly weakened; Binding buffer, salt, pH and temperature not stated; Beyotime chemiluminescent biotin-labelled nucleic acid detection kit; probes annealed at 72 C for 30 min. The settings on record: protein: recombinant; tags: His (pET-30a(+)); chain copies: 2; 5' overhang 1 nt as printed.

For series [3], the target named is T1, VvCEB1. Put plainly: EMSA; band disappeared completely with mutated probe; Binding buffer, salt, pH and temperature not stated; Beyotime chemiluminescent biotin-labelled nucleic acid detection kit; probes annealed at 72 C for 30 min. The settings on record: protein: recombinant; tags: His (pET-30a(+)); chain copies: 2; blunt.
Series [4] deals with T1, VvCEB1. Put plainly: competition; unlabelled competitor against biotin probe N4; band significantly weakened; Binding buffer, salt, pH and temperature not stated; Beyotime chemiluminescent biotin-labelled nucleic acid detection kit; probes annealed at 72 C for 30 min. The settings on record: protein: recombinant; tags: His (pET-30a(+)); chain copies: 2; blunt.

Numbering of substitutions follows the chain as printed.

B1: PVvEXPA8-biotin (dsDNA)
DNA 1: TGGTAGTCTAACTTGAACAAAACATATGCATGTGCAG
DNA 2: CTGCACATGCATATGTTTTGTTCAAGTTAGACTACCA
Regarding B1, the binding result in the series with VvCEB1 [1] is reported as “binds”.

B2: PVvEXPA8 (unlabelled competitor) (dsDNA)
DNA 1: TTGGTAGTCTAACTTGAACAAAACATATGCATGTGCAG
DNA 2: B1 DNA 2
As to B2, in the series with VvCEB1 [2], the binding result is “binds”.

B3: PVvEXPA8-mut (dsDNA)
DNA 1: B1 DNA 1 with G32T, G34T
DNA 2: B1 DNA 2 with C4A, C6A
As to B3, the binding result with VvCEB1 [3] is “no binding”.

B4: PVvEXPA11-biotin (dsDNA)
DNA 1: CTACTTGCAGAGATCACATGTGAGGCTGTTGCATT
DNA 2: AATGCAACAGCCTCACATGTGATCTCTGCAAGTAG
Turning to B4, the binding result in the series with VvCEB1 [1] is “binds”.

B5: PVvEXPA11-mut (dsDNA)
DNA 1: B4 DNA 1 with G20T, G22T
DNA 2: B4 DNA 2 with C14A, C16A
Consider B5, for which, in the series with VvCEB1 [3], the binding result is “no binding”.

B6: PVvEXPA11 (unlabelled competitor) (dsDNA)
DNA 1: B4 DNA 1
DNA 2: B4 DNA 2
Consider B6, for which the binding result in the series with VvCEB1 [4] is on record as “binds”.

The record behind these values is article PMC10573625, “Interaction of VvDELLA2 and VvCEB1 Mediates Expression of Expansion-Related Gene during GA-Induced Enlargement of Grape Fruit”.
